Like-named read-outs stand apart in the source and are kept apart here.
Experiments:
[1] = system: HCT 116 colon cancer cell line; test: In vitro cytotoxicity, WST-1 viability test; assay type: cell-based; conditions: mean of 3 independent experiments
Method: The cytotoxicity of different drug conjugates was evaluated using the HCT 116 colon cancer cell line and was compared to the cytotoxicity of the free drug (doxorubicin, mitomycin C or paclitaxel). Cells were seeded at 8 000 cells/well and maintained in Mc Coy medium supplemented with 10% fetal bovine serum for 24 hours before treatment. Cells were incubated with increasing concentrations of drugs or conjugates at 37°C, 5% CO2. The medium was then removed and a WST-1 test (purchased from Roche) was performed according to the manufacturer's instructions. The cytotoxicity of the tested conjugates was expressed as the molar concentration inhibiting 50% of the cell viability (IC50), calculated using Graph Pad Prism 3.02 software. Experimental data are presented as the mean of three independent experiments performed in duplicate.
Table 1: Drug concentration that inhibits 50% of cell viability (IC50) using the HCT 116 cell line. Data represent the mean value of 3 independent experiments. After the indicated exposure time at 37°C, cells were rinsed and a viability assay (WST1 test) was performed to determine IC50.

[2] = system: LS 174T tumors; test: In vivo anti-tumoral efficacy of doxorubicin conjugates in the LS 174T tumor model; design: species or system NMRI nude mice
From the text: (§1) Treatments were initiated when the tumors had reached a size of 100 mm^3 (calculated using the following formula: [length x width^2]/2). […] During the course of the experiment, clinical signs, body weight and tumor volume were controlled twice a week. Results are presented as the evolution of mean tumor volume as a function of time. Optimal T/C (ratio of mean tumor volume of treated versus control mice) values were used as a measure of treatment efficacy. The optimal T/C% reflects the maximal tumor growth inhibition achieved. The experiment was repeated twice.

[3] = In vivo toxicity of doxorubicin conjugates in LS 174T tumor-bearing nude mice (i.v.); conditions: for equitoxic dose: i.v.
Method: Toxicity studies were conducted in LS 174T tumor-bearing nude mice following intravenous administration. […] LS 174T tumors were established by a subcutaneous implantation of cells (3 x 10^7 cells injected) in the right flank of 7 weeks old female NMRI nude mice (Janvier, France). The day of the first injection, animals were randomly assigned to groups of 6 animals. The TA-ALAL-doxorubicin and Suc-ALAL-doxorubicin conjugates were dissolved in saline and Suc-βALAL-doxorubicin was prepared in glucose 5%. All conjugates were delivered by bolus intravenous injection (i.v.) in the lateral tail vein at 10 µL/g. During the course of the experiment, clinical signs and body weight were controlled at least twice a week. The experiment was repeated twice. Table 2: In vivo toxicity of TA-ALAL-doxorubicin conjugate compared to Suc-βALAL-doxorubicin and Suc-ALAL-doxorubicin in LS 174T tumor-bearing mice.

[4] = In vitro human plasma stability of drug conjugates (HPLC); assay type: in vitro ADME; conditions: for remaining at 6 h, 100 µM: 100 µM paclitaxel conjugates, read-out: plasma stability (% conjugate)
Method: Human plasma (citrated human blood was centrifuged at 600 g for 10 min at +4°C, plasma was recovered and aliquots stored at -20°C) was used to assess the stability of the following drug conjugates: Suc-ALAL-doxorubicin, Suc-βALAL-doxorubicin, TA-ALAL-doxorubicin, Suc-βALAL-MMC, TA-ALAL-MMC, Suc-βALAL-paclitaxel and TA-ALAL-paclitaxel. The drug conjugates (50 µM doxorubicin or MMC, 100 µM paclitaxel conjugates) were incubated at 37°C with human plasma either for 0, 2 or 6 hours, 50 µL of sample were collected at each time point and extraction was performed immediately.
For the doxorubicin conjugate and metabolites, 150 µL of acetonitrile was added to the 50 µL samples. Samples were vortexed and centrifuged for 10 min at 13 000 rpm at room temperature. 100 µL were harvested and 200 µL of 2% ammonium formate pH 4.0 were added before centrifugation (10 min at 13 000 rpm). HPLC analysis (at 560 nm) was performed using the supernatant.
For MMC conjugate and metabolites were extracted prior to HPLC analysis. 100 µL of acetonitrile was added to the 50 µL of sample, prior to vortexing (10 seconds) and centrifugation (10 min at 13 000 rpm) at room temperature. 50 µL of supernatant was recovered and mixed with 150 µL of Phosphate Buffer Saline (PBS) 1X. After centrifugation (10 min at 13 000 rpm), 150 µL of supernatant were collected for HPLC analysis. Stability and reactivation were evaluated by HPLC analysis (at 270 nm) and MMC conjugate and metabolite peak areas were compared.
For the paclitaxel conjugate and metabolites, 150 µL of acetonitrile was added to 50 µL of sample, vortexed and centrifuged for 10 min at 13 000 rpm at room temperature. 100 µL of supernatant was recovered and mixed with 100 µL of water. After centrifugation (10 min at 13 000 rpm), the supernatant was collected for HPLC analysis (at 230 nm).

[5] = system: LS 174T tumors; test: In vivo anti-tumoral efficacy of mitomycin C conjugates in the LS 174T tumor model; design: species or system NMRI nude mice
From the text: as §1
The in vivo anti-tumoral efficacy of TA-ALAL-MMC was compared to that of Suc-βALAL-MMC in the LS 174T tumor model. The establishment of the LS 174T tumors and the treatments were carried out as previously described in Example V. TA-ALAL-MMC conjugate was dissolved in saline and Suc-βALAL-MMC conjugate was prepared in 3% DMSO in Sodium phosphate buffer (15mM). […] During the course of the experiment, clinical signs, body weight and tumor volume were controlled twice a week. The experiment was repeated twice. Table 4: Anti-tumoral efficacy of TA-ALAL-MMC compared to Suc-βALAL-MMC in the LS 174T tumor model.

[6] = Experiment 1, dose 67.7 µmol/kg i.v., groups of 6 animals
[7] = Experiment 1, dose 67.7 µmol/kg i.v., LS 174T tumor-bearing mice
[8] = Experiment 1, dose 67.7 µmol/kg i.v.
[9] = Experiment 2, LS 174T tumor-bearing mice
[10] = after 6 hours in human plasma at 37°C
[11] = Experiment 2, dose 77.4 µmol/kg i.v.
[12] = Experiment 1, dose 60 µmol/kg i.v.
[13] = Experiment 2, dose 80 µmol/kg i.v.

Compound: CO[C@@]12[C@H](COC(N)=O)C3=C(C(=O)C(C)=C(N)C3=O)N1C[C@@H]1N[C@@H]12 [Mitomycin C (MMC), mitomycin C]
- IC50 ([1]; incubation time 24 h): 5 µM

Compound: COc1cccc2c1C(=O)c1c(O)c3c(c(O)c1C2=O)CC(O)(C(=O)CO)CC3OC1CC(NC(=O)C(CC(C)C)NC(=O)C(C)NC(=O)C(CC(C)C)NC(=O)C(C)NC(=O)CCC(=O)O)C(O)C(C)O1 (centres unmarked) [Suc-ALAL-dox, Suc-ALAL-doxorubicin]
- animals died [2, 6]: 3 animals died
- Maximal body weight loss % [3, 7]: 36.1%
- dead animals [3, 6]: 3
- IC50 ([1]; incubation time 48 h): 10 µM
- remaining at 2 h, 50 µM ([4]; human, plasma): 80%
- remaining at 6 h, 50 µM ([4]; human, plasma): 54%

Compound: COc1cccc2c1C(=O)c1c(O)c3c(c(O)c1C2=O)CC(O)(C(=O)CO)CC3OC1CC(NC(=O)C(CC(C)C)NC(=O)C(C)NC(=O)C(CC(C)C)NC(=O)CCNC(=O)CCC(=O)O)C(O)C(C)O1 (centres unmarked) [Suc-βALAL-dox, Suc-βALAL-doxorubicin]
- Optimal T/C (%) [2, 8]: 52%
- Optimal T/C (%) ([2]; Experiment 2, dose 47.4 µmol/kg i.v.): 52%
- equitoxic dose [3, 9]: 47.4 µmol/kg
- Maximal body weight loss % ([3]; mouse, in vivo, iv): 15.9%
- IC50 ([1]; incubation time 48 h): > 10 µM
- remaining at 2 h, 50 µM ([4]; human, plasma): 77.2%
- remaining at 6 h, 50 µM ([4]; human, plasma): 47.5%

Compound: CC(=O)O[C@H]1C(=O)[C@@]2(C)[C@H]([C@H](OC(=O)c3ccccc3)[C@]3(O)C[C@H](OC(=O)[C@H](OC(=O)C(CC(C)C)NC(=O)C(C)NC(=O)C(CC(C)C)NC(=O)CCNC(=O)CCC(=O)O)[C@@H](NC(=O)c4ccccc4)c4ccccc4)C(C)=C1C3(C)C)[C@]1(OC(C)=O)CO[C@@H]1C[C@@H]2O (some centres unmarked) [Suc-βALAL-paclitaxel]
- IC50 ([1]; incubation time 4h + 72 h): 0.762 µM
- remaining at 6 h, 100 µM [4, 10]: 41%

Compound: COc1cccc2c1C(=O)c1c(O)c3c(c(O)c1C2=O)CC(O)(C(=O)CO)CC3OC1CC(NC(=O)C(CC(C)C)NC(=O)C(C)NC(=O)C(CC(C)C)NC(=O)C(C)NC(=O)C2C(C(=O)O)C(C(=O)O)C2C(=O)O)C(O)C(C)O1 (centres unmarked) [TA-ALAL-dox, TetraAcid-ALAL-doxorubicin]
- Optimal T/C (%) [2, 8]: 42%
- Optimal T/C (%) [2, 11]: 36%
- Maximal body weight loss % [3, 7]: 13.7%
- Maximal body weight loss % ([3]; Experiment 2, dose 55.1 µmol/kg i.v.): 11.3%
- Maximal body weight loss % [3, 11]: 17.9%
- equitoxic dose [3, 9]: 77.4 µmol/kg
- IC50 ([1]; incubation time 48 h): > 10 µM
- remaining at 2 h, 50 µM ([4]; after 2 hours in human plasma at 37°C, 50 µM doxorubicin conjugates, read-out: percentage of intact conjugate): 83%
- remaining at 6 h, 50 µM ([4]; after 6 hours in human plasma at 37°C, 50 µM doxorubicin conjugates, read-out: percentage of intact conjugate): 67%

Compound: CC(=O)O[C@H]1C(=O)[C@@]2(C)[C@H]([C@H](OC(=O)c3ccccc3)[C@]3(O)C[C@H](OC(=O)[C@H](OC(=O)C(CC(C)C)NC(=O)C(C)NC(=O)C(CC(C)C)NC(=O)C(C)NC(=O)C4C(C(=O)O)C(C(=O)O)C4C(=O)O)[C@@H](NC(=O)c4ccccc4)c4ccccc4)C(C)=C1C3(C)C)[C@]1(OC(C)=O)CO[C@@H]1C[C@@H]2O (some centres unmarked) [TA-ALAL-paclitaxel, TetraAcid-ALAL-paclitaxel]
- IC50 ([1]; incubation time 4h + 72 h): 10 µM
- remaining at 6 h, 100 µM [4, 10]: 43%

Compound: COc1cccc2c1C(=O)c1c(O)c3c(c(O)c1C2=O)C[C@@](O)(C(=O)CO)C[C@@H]3O[C@H]1C[C@H](N)[C@H](O)[C@H](C)O1 [doxorubicin (dox), doxorubicin]
- IC50 ([1]; Homo sapiens, incubation time 48 h): 0.034 µM

Compound: CC(=O)O[C@H]1C(=O)[C@@]2(C)[C@H]([C@H](OC(=O)c3ccccc3)[C@]3(O)C[C@H](OC(=O)[C@H](O)[C@@H](NC(=O)c4ccccc4)c4ccccc4)C(C)=C1C3(C)C)[C@]1(OC(C)=O)CO[C@@H]1C[C@@H]2O [paclitaxel]
- IC50 ([1]; Homo sapiens, incubation time 4h + 72 h): 0.02 µM

Compound: Suc-βALAL-mitomycin C [Suc-βALAL-MMC]
- Maximal body weight loss % [5, 12]: 14.5%
- Optimal T/C (%) [5, 12]: 48%
- Maximal body weight loss % [5, 13]: 15.9%
- Optimal T/C (%) [5, 13]: 43%
- IC50 ([1]; incubation time 24 h): 67 µM
- % of conjugates remaining ([4]; after 6 hours in human plasma at 37°C, 50 µM MMC conjugates): 73%

— EP1977765A1, “Peptide prodrugs” (Diatos, priority 2007, dated 2008)
